Experimental findings from patent US20250101086A1 (RESEARCH FOUNDATION OF THE CITY UNIVERSITY OF NEW YORK, published 2025) are described below.

One assay has as its target T1, IR4 peptide (Borrelia burgdorferi strain B31, biotin-labeled on the N terminus).
T1 construct: also called invariant region 4
T1 peptide: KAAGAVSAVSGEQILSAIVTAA
Put plainly: not given; it says that supporting data are given elsewhere in the disclosure (ELISA).

A further assay has as its target T2, IR6 peptide (Borrelia burgdorferi strain B31, biotin-labeled on the N terminus).
T2 construct: Synthetic peptide based on VlsE of strain B31 (GenBank U76405); also called invariant region 6
T2 peptide: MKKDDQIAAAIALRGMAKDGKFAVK
Put plainly: ELISA of purified rMAb on coated peptide.

Assay [1] deals with T3, recombinant VlsE protein (of strain B31) (Borrelia burgdorferi strain B31).
T3 construct: domain: vlsE cassette region (including the IR1 through VR6 regions); Preparation of about 65% purity; Used as immunogen, as ELISA antigen and on beads; also called VISE; recombinant B31 VlsE
Put plainly: titration on VlsE, given as ED50; method not given.

Substitutions are numbered along the chain they refer to.

B1: antibody with VH SEQ ID NO: 3 and VL SEQ ID NO: 4 (antibody, V domains shown)
VH: QSLEESGGGLFKPTDTLTLTCTVSGIDLSSYAMIWVRQAPGKGLEWIGYIWSSGRIWYASWAKGRFTISRTSTTVDLKLASPTTEDTATYFCARLWDIWGPGTLVTVSS
VL: AQVLTQTPSSVSAAVGGTVTISCQASQSLYNGVNLAWYQQKPGQPPKLLIFGASNLESGVSSRFRGSGSGTQFTLTISGVQCDDAATYYCLGEFSCSSADCLAFGGGTEVVVK
Take B1: in the assay with IR4 peptide, the binding result is given as “binds”.

B2: antibody with VH SEQ ID NO: 5 and VL SEQ ID NO: 6 (antibody, V domains shown)
VH: QSVEESGGRLVTPGTPLTLTCTVSGFPLSSYSMAWVRQAPGKGLEYIGFINTDGSAYYASWAKGRITISKTSTTVELKITSPTTEDTATYFCGTGNIWGPGTLVTVSS
VL: AQVLTQTPSSVSAAVGGTVTINCQASQSVSNNNVLAWFQQKPGQPPKRLIYSALTLDSGVPSRFKGSGSGTHFTLTISGVQCDDAATYYCAGGYDCSSNDCIAFGGGTEVVVK
For B2, in the assay with IR4 peptide, the binding result is recorded as “binds”.

B3: antibody with VH SEQ ID NO: 7 and VL SEQ ID NO: 8 (antibody, V domains shown)
VH: B2 VH with P27S, A34G, F49M, N51I, T52S, D53N, G54N, A56T
VL: B2 VL with S9A, V29T, V34A, A103T
In the case of B3, the binding result in the assay with IR4 peptide is listed as “binds”.

B4: 1D11 recombinant monoclonal antibody (re-cloned from the second most abundant VH and VL sequences) (antibody, V domains shown)
VH: QSLVESGGGLVQPEGSLTLTCKASGFSFSSGYDMCWVRQAPGKGLEYIACIDAGDDITHYASWVKGRFTVSKTSSTTVTLQLNSLTVADTATYFCGRFWDLWGPGTLVTVSS
VL: SVLTQTPSPVSAAVGGTVTINCQSSQSVYDSTWLGWYQQKPGQPPKLLIYKASNLASGVPSRFKGSGSGTHFTLTISDLECDDAATYYCVGGYSGSVDNWAFGGGTEVVVK
notes: Rabbit recombinant monoclonal IgG; the rabbit constant regions are cited to the literature; The variable fragments were cloned into pcDNA3.4 and expressed in mouse cells; also called ID11; new rMAb
Consider B4, for which the binding result with IR6 peptide was “binds”. For the same molecule, in assay [1], the EC50 was found to be 0.0109 µg/mL.
